assay: yeast display, Sf9 membrane polyspecificity reagent, FACS + sequencing; frameworks hold sequencing errors
Summary of the method: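 Galactose induction of a Saccharomyces cerevisiae BJ5465 synthetic nanobody display library ran 36–48 hours. The cells were then stained for 1 hour at 4 °C with 10% biotinylated, detergent-solubilized Sf9 membrane reagent, pulled down on streptavidin microbeads and FACS-sorted into low and high (top ~1%) gates on expression and reagent-binding fluorescence. Labels for polyreactivity follow the gate of origin.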

**Q.** For “QVQLVESGGGLVQAGGSLRLSCAASGFISTPYAMGWYRQAPGKERELVAAIDISGGRTYYADSVKGRFTISRDNAKNTVYLQMNSLKPEDTAVYYCAAQLVSSYYAWYRTYYYWGQGTQVTVSS”, which “polyreactivity (PSR sort gate)” value is on record?
**A.** The value was “high polyreactivity”.

**Q.** For “QVQLVESGGGLVQAGGSLRLSCAASGFISYYYAMGWYRHAPGKEREFVAAITSSGGSTRYADSVKGCFTISRDNAKNTVYLQMNSLKPEDTAVYYCAAGNPYFWPYDYWGQGTQVTVSS”, which “polyreactivity (PSR sort gate)” value is on record?
**A.** Its value is “low polyreactivity”.

**Q.** Which “polyreactivity (PSR sort gate)” value does the source give for “QVQLVESGGGLVQAGGSLRLSCAASGFITPWYAMGWYRQAAGKEREWVAAIDWSGGSTYYADSVKGRFTISRDNAKNSVYLQMNSVKPEDTAVYYCAARYYTASVRAGRVRMYYWGQGTQVTVSS” here?
**A.** Its value is “high polyreactivity”.

**Q.** Which “polyreactivity (PSR sort gate)” value does the source give for “QVQLVESGGGLVQAGGSLRLSCAASGFIVGRYAMGWYRQAPGNERELVAAITRSGGSTYYADSVKGRFTISRDNAKNTVYLQMISLKPEQTAVYFGAAYPGRAQVAYDYWGQGTQVTVSS” here?
**A.** The value was “high polyreactivity”.

**Q.** Which “polyreactivity (PSR sort gate)” value does the source give for “QVQLVESGGGLVQAGGSLRLSCAASGFIVRSYAMGWYRQAPGKERELVAVISRRGVNTHYADSVKGRFTISRDNAKNTVYFQMNSLKPEDTAVYYCAKGLTALGDYWGQGTQVTVSS” here?
**A.** Its value is “high polyreactivity”.

**Q.** Which “polyreactivity (PSR sort gate)” value does the source give for “QVQLVESGGGLVQAGGSLRLSCAASGFIWSYVMGWYRQAPGKESQLVAAISRSCGRTYYADSVKGRFTISRDNAKNTVYLQMNSLKPEDTAVYYCAKDGGWSRLHYNYWGQGNQVTVSS” here?
**A.** The value was “high polyreactivity”.

**Q.** With “QVQLVESGGGLVQAGGSLRLSCAASGFIYDKYVMGWSRQAPGKERQLVAAISSGGSTYYADSVKGRFTISRDNAKNTVYLQMNSLKPEDTAVYYCNAGGFWPWVYGYDSWGQGTQVTVSS” as the sequence, how does the “polyreactivity (PSR sort gate)” value read?
**A.** Its value is “high polyreactivity”.

**Q.** With “QVQLVESGGGLVQAGGSLRLSCAASGFIYERNAMGWYRQAPGKERELVAAISGGGSTNYADSVKGRFTISRDNAKNTVYLQMNSLNPEDTAVYYCAADSWWYPFDYWGQGTQVTVSS” as the sequence, how does the “polyreactivity (PSR sort gate)” value read?
**A.** The value was “high polyreactivity”.

**Q.** For “QVQLVESGGGLVQAGGSLRLSCAASGFIYGPNAMGWYRQAPGKERELVAAISYSGGRTYYADSVKGRFTISRDNAKNTVYLQLISLKPEDSAVYYCAAERKIKYDYWGQGTQVTVSS”, which “polyreactivity (PSR sort gate)” value is on record?
**A.** The value was “high polyreactivity”.

**Q.** For “QVQLVESGGGLVQAGGSLRLSCAASGFIYNAMGWYRQAPGKERELVAAISYSGGSTYYADSVKGRFTISRDNAKNTVYLQMNILKPEDTAVYYCAAGYYPFNYWGQGTQVTVSS”, which “polyreactivity (PSR sort gate)” value is on record?
**A.** The value was “high polyreactivity”.

**Q.** For “QVQLVESGGGLVQAGGSLRLSCAASGFIYRKNAMGWYRQAPGKERELVATITKSGDTTYYADSVKGRFTISRDNAKNTVYLQMNSLKPEDTAVYYCAAPLYYIGSWDYYVRYIYDYWGQGTQVTVSS”, which “polyreactivity (PSR sort gate)” value is on record?
**A.** Its value is “low polyreactivity”.

**Q.** Which “polyreactivity (PSR sort gate)” value does the source give for “QVQLVESGGGLVQAGGSLRLSCAASGFIYSSNAMGWYRQAPGKERELVAAISSSGGRTYYAVSVKGRFTISRDNAKNTVYLQMNRLKPEDTAVYYCNAYPRSRGSANDWGQGTQVPVSS” here?
**A.** Its value is “high polyreactivity”.

**Q.** For “QVQLVESGGGLVQAGGSLRLSCAASGFIYTYAMGSYRQAPGKERELVAAIRWIGTRTYYADSVKGRFTISRDNAKNTVYLQMNSLKPEDTADYYCAARYYTYDGYSKYDYWGQGTQVNVSS”, which “polyreactivity (PSR sort gate)” value is on record?
**A.** Its value is “high polyreactivity”.

**Q.** For “QVQLVESGGGLVQAGGSLRLSCAASGFLFGYSAMGWYRQAPGKERELVAAISYACRSTYYADSVKGRFTISRDNAKNTVYLQMNSLKPEDTAVYYCAKYGQSNYDWGQGTQVTVSS”, which “polyreactivity (PSR sort gate)” value is on record?
**A.** The value was “high polyreactivity”.

**Q.** With “QVQLVESGGGLVQAGGSLRLSCAASGFLFRYYARGWYRQAPGKERELVADISQNGDSTYYADSVKGRFTISRDTAKITVYLQMNCLNPDDTAVYYCNADNDPWPYFDGIFSVDMDYWGQGTQVTVSS” as the sequence, how does the “polyreactivity (PSR sort gate)” value read?
**A.** The value was “low polyreactivity”.

**Q.** For “QVQLVESGGGLVQAGGSLRLSCAASGFNFIYYAMGWYRQAPGKERELVAAISRRGGSTYYADSVKGRFTISRDNAKNTVYLQMNSLKPEDTAVYYCAADYTSAILRSDYWGQGTQVTVSS”, which “polyreactivity (PSR sort gate)” value is on record?
**A.** Its value is “high polyreactivity”.

**Q.** With “QVQLVESGGGLVQAGGSLRLSCAASGFNFNKNAMGWYIQAPGKERELVASITASGTTTYADSVKGRFTISRDNAKNTVYLQMNSLKPEDTAVYYCAVRTRIWGFYYWGQGTQVTVSS” as the sequence, how does the “polyreactivity (PSR sort gate)” value read?
**A.** Its value is “high polyreactivity”.

**Q.** With “QVQLVESGGGLVQAGGSLRLSCAASGFNFRANGMGWYRQAPGKERELVATITSGGTTNYADSVKGRFTISRDNAKNTVYLQMNSLKPEDTAVYYCDKRFGPAYFRLYDYWGQGTQVTVSS” as the sequence, how does the “polyreactivity (PSR sort gate)” value read?
**A.** Its value is “low polyreactivity”.

**Q.** With “QVQLVESGGGLVQAGGSLRLSCAASGFNFRSYAIGCYRQAPGKERELVAAITSTGGRTYYADSVKGRFTISRDNAKNTVYLQMNSLKPEETAVYYCAAGRKHYAPVHFGYWGQGTQVTVSS” as the sequence, how does the “polyreactivity (PSR sort gate)” value read?
**A.** Its value is “high polyreactivity”.

**Q.** Which “polyreactivity (PSR sort gate)” value does the source give for “QVQLVESGGGLVQAGGSLRLSCAASGFNIVRYAMGWYRHAPRKERELVATITSGTSTNYADSVKGRITISRDNAKNTVYFQMNSLKPDDTAVYYCAADHYYTGTTYNFWGQGTQVNVSS” here?
**A.** The value was “low polyreactivity”.

**Q.** Which “polyreactivity (PSR sort gate)” value does the source give for “QVQLVESGGGLVQAGGSLRLSCAASGFNLYPNAMGWYRQAPGKERELGAAITESDGITYYADSVKGRFTISRDNAKYTVYLQMNSLKPEDTAVYYCNTGFSYTYDYWGQGTQVTVSS” here?
**A.** The value was “low polyreactivity”.

**Q.** For “QVQLVESGGGLVQAGGSLRLSCAASGFSFPPYAMGWYRQAPGKERELVAAITTSGGSTYYADSVKGRFTISRDNAKNTVYLQMNSMKPEDTAVYYCAADWRYLGYTAMDYWGQGTQVTVSS”, which “polyreactivity (PSR sort gate)” value is on record?
**A.** Its value is “low polyreactivity”.

Reference: the nanobody polyreactivity screen of Harvey et al. (2022)
